Data as given in IntAct's records for PubMed 26647308.

B1: Forkhead box protein P1 (Homo sapiens), Q9H334 (parent)
chain: MMQESGTETKSNGSAIQNGSGGSNHLLECGGLREGRSNGETPAVDIGAADLAHAQQQQQQALQVARQLLLQQQQQQQVSGLKSPKRNDKQPALQVPVSVAMMTPQVITPQQMQQILQQQVLSPQQLQVLLQQQQALMLQQQQLQEFYKKQQEQLQLQLLQQQHAGKQPKEQQQVATQQLAFQQQLLQMQQLQQQHLLSLQRQGLLTIQPGQPALPLQPLAQGMIPTELQQLWKEVTSAHTAEETTGNNHSSLDLTTTCVSSSAPSKTSLIMNPHASTNGQLSVHTPKRESLSHEEHPHSHPLYGHGVCKWPGCEAVCEDFQSFLKHLNSEHALDDRSTAQCRVQMQVVQQLELQLAKDKERLQAMMTHLHVKSTEPKAAPQPLNLVSSVTLSKSASEASPQSLPHTPTTPTAPLTPVTQGPSVITTTSMHTVGPIRRRYSDKYNVPISSADIAQNQEFYKNAEVRPPFTYASLIRQAILESPEKQLTLNEIYNWFTRMFAYFRRNAATWKNAVRHNLSLHKCFVRVENVKGAVWTVDEVEFQKRRPQKISGNPSLIKNMQSSHAYCTPLNAALQASMAENSIPLYTTASMGNPTLGNLASAIREELNGAMEHTNSNESDSSPGRSPMQAVHPVHVKEEPLDPEEAEGPLSLVTTANHSPDFDHDRDYEDEPVNEDME

Variants of: B1
Conditions: with foxp2_human FOXP2, O15409
Chain of foxp2_human FOXP2, O15409 (O15409 whole entry): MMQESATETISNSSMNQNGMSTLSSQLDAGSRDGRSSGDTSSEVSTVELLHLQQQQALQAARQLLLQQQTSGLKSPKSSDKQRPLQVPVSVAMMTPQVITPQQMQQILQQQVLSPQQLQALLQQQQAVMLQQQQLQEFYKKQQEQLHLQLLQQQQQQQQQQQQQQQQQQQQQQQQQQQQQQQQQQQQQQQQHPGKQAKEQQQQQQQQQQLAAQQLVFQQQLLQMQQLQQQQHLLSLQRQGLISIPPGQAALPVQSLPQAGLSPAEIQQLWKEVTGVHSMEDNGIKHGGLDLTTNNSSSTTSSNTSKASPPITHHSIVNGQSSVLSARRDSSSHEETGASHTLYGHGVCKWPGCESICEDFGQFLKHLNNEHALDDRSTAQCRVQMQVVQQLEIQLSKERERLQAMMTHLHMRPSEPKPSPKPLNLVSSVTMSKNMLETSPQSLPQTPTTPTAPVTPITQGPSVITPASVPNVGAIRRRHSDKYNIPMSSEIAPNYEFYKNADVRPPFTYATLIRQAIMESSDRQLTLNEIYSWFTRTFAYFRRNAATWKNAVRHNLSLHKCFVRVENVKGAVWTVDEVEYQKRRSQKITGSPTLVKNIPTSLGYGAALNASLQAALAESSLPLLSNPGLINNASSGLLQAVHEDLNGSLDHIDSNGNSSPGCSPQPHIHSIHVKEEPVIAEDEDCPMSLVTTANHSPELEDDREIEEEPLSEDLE

| Variant | effect of a mutation on the interaction |
| --- | --- |
| W534R | decreasing interaction strength |
| I107T | disrupting interaction strength |
| P215A | decreasing interaction strength |
| R514C | decreasing interaction strength |
| N570S | with no effect |
| R465G | with no effect |
| N597T | with no effect |

Variants of: B1
Conditions: with foxp2_human FOXP2, O15409
Remark: another data set of the same source

| Variant | effect of a mutation on the interaction |
| --- | --- |
| W534R | disrupting interaction strength |
| R465G | decreasing interaction strength |
